Assay results taken from paper PMC9601147.

Tests used:
Assay in all cases: SEC
[1] = molecular target: His6 tagged recombinant IN(R269A/K273A/D256R) (HIV-1 (NL4-3))
[2] = molecular target: His6 tagged recombinant IN(D256R/R262A/R263A) (HIV-1 (NL4-3))
[3] = molecular target: His6 tagged recombinant IN(R269A/K273A/D256N/D270N) (HIV-1 (NL4-3))

His6 tagged recombinant IN(R269A/K273A/D256R) (enzyme)
stoichiometry N [1]: 4

His6 tagged recombinant IN(D256R/R262A/R263A) (enzyme)
stoichiometry N [2]: 4

His6 tagged recombinant IN(R269A/K273A/D256N/D270N) (enzyme)
stoichiometry N [3]: 4
